Measured values taken from US20250382359A1 (BYOMASS, published 2025).

T1: GDF15 (ligand used in the GFRAL/RET cell assays) (UniProt Q99988 197-308, limits assumed)
T1 sequence (looked up): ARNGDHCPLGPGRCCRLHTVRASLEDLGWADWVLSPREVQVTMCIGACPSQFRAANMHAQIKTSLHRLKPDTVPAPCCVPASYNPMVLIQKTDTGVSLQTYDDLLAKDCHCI

T2: Human GDF15 Fc (human, UniProt Q99988 195-308, limits assumed, biotinylated (EZ-Link Sulfo-NHS-Biotinylation Kit) in the SPR assay)
T2 construct: also called human GDF15-Fc fusion; biotinylated Human GDF15 Fc; not shown: Fc part
T2 sequence: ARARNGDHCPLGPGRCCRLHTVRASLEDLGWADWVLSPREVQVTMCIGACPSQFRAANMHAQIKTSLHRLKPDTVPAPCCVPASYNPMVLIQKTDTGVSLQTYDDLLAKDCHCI

T3: Cyno GDF15 Fc (cyno, UniProt G7PWZ3 193-308, limits assumed)
T3 construct: also called cyno GDF15-Fc fusion; not shown: Fc part
T3 sequence: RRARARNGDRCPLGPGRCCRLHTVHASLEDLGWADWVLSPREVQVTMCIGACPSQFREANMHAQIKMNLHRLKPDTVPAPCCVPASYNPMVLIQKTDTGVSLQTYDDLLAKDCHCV

T4: Mouse GDF15 Fc (mouse, UniProt Q9Z0J7 189-303, limits assumed)
T4 construct: also called mouse GDF15-Fc fusion; not shown: Fc part
T4 sequence (looked up): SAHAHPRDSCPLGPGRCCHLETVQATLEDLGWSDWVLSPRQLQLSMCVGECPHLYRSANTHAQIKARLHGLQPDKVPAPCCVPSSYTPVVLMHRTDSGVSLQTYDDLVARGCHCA


Experiments:
[1] = target: T1, GDF15 (ligand used in the GFRAL/RET …); test: cell-based or functional assay
[2] = target: T2, Human GDF15 Fc; test: SPR Biacore 8K; biotinylated antigen captured, Fab analyte
Method: Kinetic analysis was conducted at 25° C. in HBS-EP+running buffer (10 mM HEPES pH 7.4, 150 mM NaCl, 3 mM EDTA, 0.05% Surfactant P20) using a Biacore 8K optical biosensor (Cytiva, Marlborough, MA). The sample compartment was maintained at 10° C. for the duration of the experiment. The Biacore 8K can analyze up to 8 separate interactions in a single cycle.
Each experiment cycle began with an injection (300 s at 2 μL/min) overflow cells 1 and 2 of a 1:100 solution of biotin CAPture reagent (Cytiva) in running buffer. This was followed by an injection (45 s at 10.0 μL/min) of biotinylated human GDF15 (5 nM) overflow cell 2. […] The dissociation of the antibodies were monitored for 3420 s. Finally, an injection (120 s at 10 μL/min) of regeneration solution (6 M Guanidine-HCl in 0.25 M NaOH) overflow cells 1 and 2 prepared the sensor surface for another cycle. Several blank buffer samples were injected (300 s at 30 μL/min) overflow cells 1 and 2 throughout the duration of the experiment and used for reference surface subtraction—each were monitored for the same amount of dissociation time (3420 s) and regenerated under the same conditions as those for the Fab sample injections.

[3] = target: T2, Human GDF15 Fc; test: BLI Octet; antigen on sensor, 100 nM Fab (monovalent)
[4] = target: T3, Cyno GDF15 Fc; test: as above
[5] = target: T4, Mouse GDF15 Fc; test: as above

Row | Binder | GDF15 GFRAL RET pERK Fab IC50 pM [1] [pM] | Kd [2] [nM] | koff [2] [s⁻¹] | kon [2] [M⁻¹ s⁻¹] | Kd [3] [nM] | Kd [4] [nM] | Kd [5] [nM]
1 | GDF15 antibody agent Clone E, Fab (Fab, V domains shown, Fab; CH1 and CL of the Fab not specified; also called Fab of Clone E) VH: QVQLVQSGAEVKKPGASVKVSCKASGYTFTSYGINWVRQAPGQGLEWMGWITAYSGDTNYAQKLQGRVTMTTDTSTSTAYMELRSLRSDDTAVYYCARGPGQYADVDVWGQGTMVTVSS VL: DIQMTQSPSSVSASVGDRVTITCRASQGISSWLAWYQQKPGKAPKLLIYAASSLQSGVPSRFSGSGSGTDFTLTISSLQPEDFATYYCQQANSFPITFGGGTKVEIK | 46.7 | 0.0331 | 8.71e-05 | 2.63e+06 | 0.921 | 0.413 | 3.08
2 | GDF15 antibody agent Clone K, Fab (Fab, V domains shown, Fab; CH1 and CL of the Fab not specified; also called Fab of Clone K) VH: QVQLVQSGAEVKKPGASVKVSCKASGYTFTNEGISWVRQAPGQGLEWMGWISAYTADTFYAQKLQGRVTMTTDTSTSTAYMELRSLRSDDTAVYYCARTRHDTSGLRFDYWGQGTLVTVSS VL: DIQMTQSPSSVSASVGDRVTITCRASQGIDSWLAWYQQKPGKAPKLLIYAASSLQSGVPSRFSGSGSGTDFTLTISSLQPEDFATYYCQQVHSFPITFGGGTKVEIK | 169 | 0.23 | 0.00112 | 4.87e+06 | 2.11 | 2.4 | 333

More lines, now with the values ahead:

Row | GDF15 GFRAL RET pERK Fab IC50 pM [1] [pM] | Kd [2] [nM] | koff [2] [s⁻¹] | kon [2] [M⁻¹ s⁻¹] | Kd [3] [nM] | Kd [4] [nM] | Kd [5] [nM] | Binder
3 |  | 0.0341 | 7.11e-05 | 2.08e+06 | 0.016 | 0.077 | 1.6 | GDF15 antibody agent Clone O, Fab (Fab, V domains shown, Fab; CH1 and CL of the Fab not specified; also called Fab of Clone O) VH: QVQLVQSGAEVKKPGATVKVSCKASGYTFDSLGMSWVRQAPGQGLEWMGYISTYSGDTVYAQKLQGRVTMTTDTSTSTAYMELRSLRSDDTAVYYCARESGQQVSALDPWGQGTLVTVSS VL: DIQMTQSPSSVSASVGDRVTITCRASQGISRWLAWYQQKPGKAPKLLIYAASSLQSGVPSRFSGSGSGTDFTLTISSLQPEDFATYYCQQGASFPLTFGGGTKVEIK
4 |  | 0.0411 | 4.52e-05 | 1.1e+06 | 0.613 | 0.369 | 1.92 | GDF15 antibody agent Clone T, Fab (Fab, V domains shown, Fab; CH1 and CL of the Fab not specified; also called Fab of Clone T) VH: QVQLVQSGAEVKKPGASVKVSCKASGYTFTSYGINWVRQAPGQGLEWMGWITAYSGDTNYAQKLQGRVTMTTDTSTSTAYMELRSLRSDDTAVYYCARGPGQYADVDVWGQGTMVTVSS VL: DIQMTQSPSSVSASVGDRVTITCRASQGISSWLAWYQQKPGKAPKLLIYAASSLQSGVPSRFSGSGSGTDFTLTISSLQPEDFATYYCQQASQFPITFGGGTKVEIK
5 |  | 0.0369 | 4.93e-05 | 1.34e+06 | 0.48 | 0.252 | 1.36 | GDF15 antibody agent Clone S, Fab (Fab, V domains shown, Fab; CH1 and CL of the Fab not specified; also called Fab of Clone S) VH: QVQLVQSGAEVKKPGASVKVSCKASGYTFTSYGINWVRQAPGQGLEWMGWITAYSGDTNYAQKLQGRVTMTTDTSTSTAYMELRSLRSDDTAVYYCARGPGQYADVDVWGQGTMVTVSS VL: DIQLTQSPSSVSASVGDRVTITCRASQGISPWLAWYQQKPGKAPKLLIYAASSLQSGVPSRFSGSGSGTDFTLTISSLQPEDFATYYCQQANSFPITFGGGTKVEIK
